Source: paper PMC10938605 (Science Advances, 2022)

T1: recombinant CYLD WT (GST tag cleaved) (human, UniProt Q9NQC7 1-956)
T1 sequence (looked up): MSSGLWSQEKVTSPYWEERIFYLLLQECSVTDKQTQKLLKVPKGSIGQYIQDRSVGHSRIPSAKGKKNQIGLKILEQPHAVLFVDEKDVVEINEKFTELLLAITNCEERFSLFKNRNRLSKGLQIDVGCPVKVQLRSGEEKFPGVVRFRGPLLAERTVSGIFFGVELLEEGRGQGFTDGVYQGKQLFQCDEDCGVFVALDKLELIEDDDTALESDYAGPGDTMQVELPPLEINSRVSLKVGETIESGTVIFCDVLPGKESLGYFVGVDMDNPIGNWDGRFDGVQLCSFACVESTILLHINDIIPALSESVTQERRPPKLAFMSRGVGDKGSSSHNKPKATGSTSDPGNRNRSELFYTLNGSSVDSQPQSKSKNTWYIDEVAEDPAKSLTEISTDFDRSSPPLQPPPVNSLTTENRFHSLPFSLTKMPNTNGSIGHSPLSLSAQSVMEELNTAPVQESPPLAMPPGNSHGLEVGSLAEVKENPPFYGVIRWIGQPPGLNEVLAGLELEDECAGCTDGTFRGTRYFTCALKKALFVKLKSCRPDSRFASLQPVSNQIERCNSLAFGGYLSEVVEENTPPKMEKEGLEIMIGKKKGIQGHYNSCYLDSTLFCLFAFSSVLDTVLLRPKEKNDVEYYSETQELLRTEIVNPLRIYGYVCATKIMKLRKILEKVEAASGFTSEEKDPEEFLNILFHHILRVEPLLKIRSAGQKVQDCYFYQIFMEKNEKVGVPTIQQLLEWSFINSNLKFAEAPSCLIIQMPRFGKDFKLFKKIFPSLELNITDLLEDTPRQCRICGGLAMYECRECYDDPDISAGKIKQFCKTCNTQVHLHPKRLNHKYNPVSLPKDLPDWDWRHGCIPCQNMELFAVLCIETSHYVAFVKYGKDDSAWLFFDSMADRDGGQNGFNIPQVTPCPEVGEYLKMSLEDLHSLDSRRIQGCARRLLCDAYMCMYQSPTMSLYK

T2: purified recombinant GST-tagged CYLD (human, UniProt Q9NQC7 1-956)
T2 sequence (looked up): T1 sequence (looked up)

B1: purified recombinant GST-tagged PARIS (natural protein)
chain: not shown
B2: recombinant PARIS (prey of the reciprocal GST pull-down) (natural protein)
chain: not shown

What was measured:
[1] = molecular target: T1, recombinant CYLD WT (GST tag cleaved); assay: pull-down
[2] = molecular target: T2, purified recombinant GST-tagged CYLD; assay: pull-down

Binder	binding result [1]	binding result [2]
B1	binds	
B2		binds
